# Measured values taken from the supplement of paper PMC10567573.
# B1: TSN (parent)
# chain: FVELQGFLAAEQDIREEIRKVVQS
# B2: SMOC2 (parent)
# chain: PALETQPQGDEEDIASRYPTLWTE
# Variants of: B1
# Assay: protein stability index of a GFP-peptide fusion (GPS, HEK-293T) (PSI 1-6); higher = more stable
# Details: c terminus: a fixed tail appended
# 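Also: lentivirally expressed fusions sorted by FACS into six bins by GFP to DsRed ratio, PSI derived from sequencing read proportions per bin multiplied by bin number.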
row,Variant,protein stability index
1,E16D,3.34
2,E16T,1.14
3,E16S,1.18
4,E16R,2.3
5,E16H,1.34
6,E16L,1.76
7,E11Y,2.09
8,E11A,1.05
9,E11D,1.39
10,E11K,2.13
11,E11C,1.92
12,E11I,1.86
13,E11L,2.02
14,E11F,1.29
15,E11N,2.16
16,E11W,3.13
17,E11R,2.52
18,E3C,2.23
19,E3S,2.08
20,E3T,2.59
21,E3M,2.97
22,E3R,1.25
23,E3P,1.53
24,E3F,1.6
25,E3H,2.9
26,E3Y,1.64

row,Variant,protein stability index
1,E3Q,2.4
2,E3W,1.75
3,E3N,2.45
4,E3K,1.4
5,V21M,1.21
6,V21E,1.55
7,V21D,2.52
8,V21K,1.79
9,V21P,2.51
10,V21S,1.45
11,V21W,2.27
12,V21N,2.47
13,V21T,3.32
14,V21A,1.29
15,V21G,1.69
16,V21I,3.69
17,V21Q,2.13
18,V21Y,1.68
19,A9E,2.47
20,A9I,2.48
21,A9W,3.23
22,A9N,2.25
23,A9K,1.73
24,A9G,1.62
25,A9Q,1.63
26,A9L,1.57

row,Variant,protein stability index
1,A9M,1.78
2,A9R,1.93
3,A9P,1.02
4,R15N,1.03
5,R15Y,1.76
6,R15C,1.82
7,R15L,2.35
8,R15E,2.06
9,R15M,1.83
10,R15D,1.26
11,R15W,1.39
12,R15H,1.91
13,R15G,1.41
14,R15S,1.98
15,L4E,2.17
16,L4Q,1.35
17,L4N,1.43
18,L4K,1.8
19,L4D,2.22
20,L4W,1.21
21,L4R,1.97
22,L4I,1.79
23,L4T,3.35
24,L4H,1.52
25,L4M,2.15
26,F1P,2.9

row,Variant,protein stability index
1,F1N,3.67
2,F1G,3.24
3,F1H,3.96
4,F1I,2.08
5,F1K,3.83
6,F1T,3.62
7,F1W,1.14
8,F1C,3.1
9,F1R,3.12
10,F1Y,3.21
11,F1A,3.48
12,F1L,4.18
13,G6E,2.06
14,G6C,1.56
15,G6F,1.68
16,G6M,2.16
17,G6T,2.32
18,G6N,2.42
19,G6S,1.85
20,G6I,2.19
21,Q5A,1.58
22,Q5D,1.23
23,Q5K,2.12
24,Q5C,5.07
25,Q5W,1
26,Q5V,2.38

row,Variant,protein stability index
1,V2D,4.19
2,V2F,1.75
3,V2L,1.67
4,V2K,3.83
5,V2M,2.3
6,V2W,1.33
7,V2N,3.06
8,V2R,3.34
9,V2T,1.68
10,V2G,1.75
11,V2Q,1.17
12,V2E,3.95
13,V2I,1.51
14,V2P,2.47
15,V2A,2.37
16,V2Y,2.31
17,V2S,1.65
18,I18P,3.43
19,I18L,2.87
20,I18R,1.68
21,I18A,1.82
22,I18S,1.75
23,I18Y,2.13
24,I18H,1.24
25,I18D,1.62
26,I18F,2.06

row,Variant,protein stability index
1,E17H,2.3
2,E17R,1.48
3,E17G,2.42
4,E17M,2.49
5,E17V,2.91
6,E17Y,1.93
7,E17L,2.69
8,Q12E,3.62
9,Q12C,1.92
10,Q12P,1.39
11,Q12A,3.3
12,Q12R,3.99
13,Q12V,2.6
14,Q12M,2.17
15,Q12K,2.24
16,V22K,1.62
17,V22W,2.27
18,V22H,2.65
19,V22G,1.55
20,V22P,3.2
21,V22E,2.23
22,V22L,1.97
23,V22R,1.7
24,V22Q,4.66
25,V22F,2.67
26,V22I,3.83

row,Variant,protein stability index
1,V22M,1.42
2,V22C,3
3,I14R,1.64
4,I14A,2.73
5,I14Y,1.23
6,I14W,2.36
7,I14E,3.21
8,I14T,2.01
9,I14D,1.4
10,D13H,2.78
11,D13A,3.62
12,D13F,1.85
13,D13S,1.52
14,D13N,3.27
15,D13M,2.91
16,F7C,2.68
17,F7M,2.01
18,F7A,1.64
19,F7E,3.11
20,F7R,2.04
21,F7V,2.04
22,F7G,2.33
23,F7H,2.14
24,F7N,2.71
25,F7T,2
26,F7D,2.84

row,Variant,protein stability index
1,F7K,1.31
2,F7Y,1.33
3,L8E,2.44
4,L8S,1.47
5,L8Y,1.8
6,L8K,1.72
7,L8R,3.58
8,L8D,2.68
9,L8M,2.07
10,L8N,2.31
11,L8C,1.83
12,L8Q,1.37
13,L8G,1.07
14,L8P,2.99
15,A10I,2.04
16,A10E,4.05
17,A10D,1.35
18,A10K,1.62
19,A10R,1.8
20,A10M,2.2
21,A10C,1.04
22,A10F,2.15
23,A10H,1.74
24,K20I,3.91
25,K20C,2.75
26,K20M,1.89

row,Variant,protein stability index
1,K20H,1.94
2,K20L,1.83
3,K20R,1.99
4,K20T,1.89
5,K20Y,2.21
6,K20G,1.7
7,K20A,2.27
8,K20S,1.96
9,K20P,2.1
10,R19V,1.97
11,R19N,2.38
12,R19G,3
13,R19A,2.44
14,R19Y,1.46
15,R19S,3.87
16,R19Q,3.16
17,R19D,1.6
18,R19T,2.25
19,R19C,2.32
20,R19I,1.78
21,R19K,2.67

# Variants of: B2
# Assay: as above
# Details: c terminus: a fixed tail appended
row,Variant,protein stability index
1,L21P,5.64
2,L21A,5.65
3,L21D,5.72
4,L21T,3.98
5,L21E,5.39
6,L21S,4.75
7,L21F,4.27
8,L21H,5.91
9,L21Q,5.66
10,L21C,4.64
11,L21I,5.53
12,L21M,5.37
13,L21N,5.73
14,L21V,4.75
15,L21R,4.91
16,L21W,5.13
17,L21Y,3.92
18,L21K,5.12
19,T20L,4.66
20,T20F,4.6
21,T20R,3.88
22,T20W,4.67
23,T20Y,4.1
24,T20A,4.31
25,T20I,3.3
26,T20Q,3.83
27,T20D,5.59

row,Variant,protein stability index
1,T20M,4.4
2,T20V,3.99
3,T20C,3.77
4,T20P,4.78
5,T20K,4.37
6,T20H,4.87
7,T20G,4.41
8,T20E,4.41
9,T20N,4.27
10,P19Y,4.45
11,P19M,4.32
12,P19Q,5.13
13,P19N,4.72
14,P19H,4.18
15,P19V,5.11
16,P19G,4.87
17,P19T,4.53
18,P19K,4.32
19,P19R,4.2
20,P19L,4.87
21,P19I,4.24
22,P19S,4.6
23,E24D,4.68
24,E24S,4.78
25,E24A,4.67
26,E24Q,4.82
27,E24C,4.22

row,Variant,protein stability index
1,E24M,3.94
2,E24I,3.97
3,E24R,4.81
4,E24L,4.19
5,E24P,5.1
6,E24N,3.73
7,E24H,4.47
8,E24W,4.17
9,E24T,4.65
10,E24V,4.22
11,E24G,5.22
12,E24K,5.17
13,E24Y,4.41
14,E24F,4.17
15,W22H,5.48
16,W22F,5.71
17,W22V,5.9
18,W22Q,5.51
19,W22S,5.77
20,W22M,5.49
21,W22Y,4.73
22,W22R,5.39
23,W22P,5.92
24,W22I,5.58
25,W22T,5.67
26,W22L,5.78
27,W22A,5.45

row,Variant,protein stability index
1,W22E,5.2
2,W22C,5.32
3,W22G,4.47
4,W22D,5.62
5,W22N,5.8
6,W22K,5.3
7,T23S,5.28
8,T23V,2.74
9,T23L,5.29
10,T23W,5.08
11,T23D,5.55
12,T23Q,4.43
13,T23R,5.13
14,T23E,5.39
15,T23C,5.02
16,T23M,5.08
17,T23N,5.66
18,T23F,5.22
19,T23Y,5.37
20,T23K,4.58
21,T23I,4.28
22,T23H,5.75
23,T23A,4.21
24,T23P,5.28
